Data: PMC11022410, “Synthesis and characterization of water-soluble C60–peptide conjugates” (Beilstein Journal of Organic Chemistry, 2024)

Key:
[1] = Photoinduced 1O2 generation by ESR spin trapping with 4-oxo-TEMP; details: green LED 527 nm, 1 min or 10 min; PS 40 μM, 4-oxo-TEMP 80 mM, 60 mM phosphate buffer pH 7.0, O2-bubbled, 296 K
Protocol: To preliminarily evaluate the synthesized C60–oligo-Lys (5a) as a PS, generation of singlet oxygen was measured by the ESR spin trapping method under irradiation of visible light (527 nm green LED). 4-Oxo-TEMP was used as a spin trapping reagent to form an adduct with ^1O2, i.e., 4-oxo-TEMPO, which was observed by ESR (Figure 7b).
Figure 7 a) X-band ESR spectra of the 4-oxo-TEMP adduct with ^1O2 generated by C60–oligo-Lys (5a) and rose bengal (RB), respectively, in aqueous solutions under irradiation with a green LED lamp (527 nm) for 1 min or 10 min. PS: 40 μM, 4-oxo-TEMP: 80 mM, in 60 mM phosphate buffer (pH 7.0). Measurement conditions: temperature 296 K, microwave frequency 10.03 GHz, microwave power 10 mW, receiver gain 5.0 × 10^4, modulation amplitude 1.00 G, modulation frequency 100 KHz, sweep time 83.89 s, number of scans: 1. b) Scheme for the photoinduced ^1O2 generation by C60 and reaction with spin trapping reagent 4-oxo-TEMP to form 4-oxo-TEMPO.
Detection of photoinduced 1O2 generation by ESR spin trapping
ESR measurements were carried out on a Bruker spectrometer equipped with a microwave bridge X-band ER. […]
1O2 generation was detected through the 1O2 adduct of 4-oxo-TEMP generated in an aqueous solution of C60−oligo-Lys (5a) and rose bengal as reference under irradiation by a green LED (527 nm). […]

[2] = assay type: physicochemical; details: for Solubility in Milli-Q water (pH 7.0): from lyophilized solid, Milli-Q water pH 7.0, visual (transparent solution), also with sonication, 5b purified, 5c crude; for Solubilizing solvents (Table S1): list of the solvents used to solubilize the molecules; for Solubility in acidic eluent used for HRESIMS: mixture of MeOH and water containing 0.1% formic acid
Protocol: The water solubility of C60–peptide conjugates 5a–c was tested after the removal of any remaining solvent traces by lyophilization. […]
Solubility of C60–oligopeptides 5a–c
Table S1. List of the solubilizing solvents for compounds 5a-5c. […]

Row | SMILES | 1O2 generation under visible light irradiation (ESR signal of 4-oxo-TEMPO) [1] | Solubility in Milli-Q water (pH 7.0) [2] | Solubilizing solvents (Table S1) [2] | Solubility in acidic eluent used for HRESIMS [2] | Solubility in polar and nonpolar solvents ([2]; most polar and nonpolar solvents) | Solubility over the tested pH value range ([2]; tested pH value range 4.0–9.2) | Solubility in nonpolar solvents ([2]; most nonpolar solvents, including toluene and CH2Cl2) | Solubility in other polar solvents ([2]; other polar solvents, including MeOH and DMSO)
1 | O=C([O-])c1c(Cl)c(Cl)c(Cl)c(Cl)c1-c1c2cc(I)c(=O)c(I)c-2oc2c(I)c([O-])c(I)cc12.[Na+].[Na+] [rose bengal] | three peaks corresponding to 4-oxo-TEMPO were observed | – | – | – | – | – | – | –
2 | O=C(O)CC[C@H](NC(=O)[C@H](CCC(=O)O)NC(=O)[C@H](CCC(=O)O)NC(=O)[C@H](CCC(=O)O)NC(=O)[C@H](CCC(=O)O)NC(=O)CCCNC(=O)CC(CC(=O)NCCCC(=O)N[C@@H](CCC(=O)O)C(=O)N[C@@H](CCC(=O)O)C(=O)N[C@@H](CCC(=O)O)C(=O)N[C@@H](CCC(=O)O)C(=O)N[C@@H](CCC(=O)O)C(=O)O)N1CC23c4c5c6c7c8c9c(c%10c%11c2c2c4c4c%12c5c5c6c6c8c8c%13c9c9c%10c%10c%11c%11c2c2c4c4c%12c%12c5c5c6c8c6c8c%13c9c9c%10c%10c%11c2c2c4c4c%12c5c6c5c8c9c%10c2c45)C73C1)C(=O)O (stereo partly shown) [5b, C60–oligo-Glu] | – | did not produce transparent solutions | 25 mM TRIS buffer (pH > 8.3), 2% NaOD in D2O (pH 13.7) | insolubility | – | – | – | –
3 | N=C(N)NCCC[C@H](NC(=O)[C@H](CCCNC(=N)N)NC(=O)[C@H](CCCNC(=N)N)NC(=O)[C@H](CCCNC(=N)N)NC(=O)[C@H](CCCNC(=N)N)NC(=O)CCCNC(=O)CC(CC(=O)NCCCC(=O)N[C@@H](CCCNC(=N)N)C(=O)N[C@@H](CCCNC(=N)N)C(=O)N[C@@H](CCCNC(=N)N)C(=O)N[C@@H](CCCNC(=N)N)C(=O)N[C@@H](CCCNC(=N)N)C(=O)O)N1CC23c4c5c6c7c8c9c(c%10c%11c2c2c4c4c%12c5c5c6c6c8c8c%13c9c9c%10c%10c%11c%11c2c2c4c4c%12c%12c5c5c6c8c6c8c%13c9c9c%10c%10c%11c2c2c4c4c%12c5c6c5c8c9c%10c2c45)C73C1)C(=O)O (stereo partly shown) [5c, C60–oligo-Arg] | – | did not produce transparent solutions | insoluble in most solvents | slightly soluble | not soluble in most polar and nonpolar solvents | remained insoluble | – | –
4 | NCCCC[C@H](NC(=O)[C@H](CCCCN)NC(=O)[C@H](CCCCN)NC(=O)[C@H](CCCCN)NC(=O)[C@H](CCCCN)NC(=O)CCCNC(=O)CC(CC(=O)NCCCC(=O)N[C@@H](CCCCN)C(=O)N[C@@H](CCCCN)C(=O)N[C@@H](CCCCN)C(=O)N[C@@H](CCCCN)C(=O)N[C@@H](CCCCN)C(=O)O)N1CC23c4c5c6c7c8c9c(c%10c%11c2c2c4c4c%12c5c5c6c6c8c8c%13c9c9c%10c%10c%11c%11c2c2c4c4c%12c%12c5c5c6c8c6c8c%13c9c9c%10c%10c%11c2c2c4c4c%12c5c6c5c8c9c%10c2c45)C73C1)C(=O)O (stereo partly shown) [5a, C60–oligo-Lys] | – | immediately and thoroughly solubilized | water (pH 4.0–9.2), MeOH, DMSO | – | – | – | not highly soluble | slightly soluble
